# Source: patent US20260167710A1 (GlaxoSmithKline, published 2026)
# T1: IL-33 95-270 (UniProt O95760 95-270)
# T1 sequence (looked up): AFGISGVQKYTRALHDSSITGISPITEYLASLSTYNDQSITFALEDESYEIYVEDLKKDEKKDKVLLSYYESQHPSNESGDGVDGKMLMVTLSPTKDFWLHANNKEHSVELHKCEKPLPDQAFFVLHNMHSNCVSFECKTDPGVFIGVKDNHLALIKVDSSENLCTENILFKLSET
# T2: IL-33 99-270 (UniProt O95760 99-270)
# T2 sequence (looked up): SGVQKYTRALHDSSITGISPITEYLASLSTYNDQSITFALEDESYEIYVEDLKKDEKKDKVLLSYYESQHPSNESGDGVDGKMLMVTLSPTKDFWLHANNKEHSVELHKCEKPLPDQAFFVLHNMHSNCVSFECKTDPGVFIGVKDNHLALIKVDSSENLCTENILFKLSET
# T3: IL-33 109-270 (UniProt O95760 109-270)
# T3 sequence (looked up): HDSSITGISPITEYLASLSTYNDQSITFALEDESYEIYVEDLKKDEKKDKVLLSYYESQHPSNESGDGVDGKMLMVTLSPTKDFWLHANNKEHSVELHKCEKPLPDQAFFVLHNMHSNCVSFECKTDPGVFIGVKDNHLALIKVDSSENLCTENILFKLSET
# T4: Mature IL-33 (IL-33 113-270) (UniProt O95760 113-270)
# T4 sequence (looked up): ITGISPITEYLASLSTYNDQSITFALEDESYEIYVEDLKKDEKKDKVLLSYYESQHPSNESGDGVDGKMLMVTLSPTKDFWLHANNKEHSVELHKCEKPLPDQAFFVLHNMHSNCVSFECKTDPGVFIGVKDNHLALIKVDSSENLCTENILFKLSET
# T5: human IL-33 (human, Biotinylated in Example 2; the site is not stated.)
# T5 chain: T4 sequence (looked up)
# T6: cynomolgus IL-33 (cynomolgus monkey, UniProt A0A2K5W3I1 112-269)
# T6 construct: also called cyno IL-33; cynomolgus monkey IL-33
# T6 sequence: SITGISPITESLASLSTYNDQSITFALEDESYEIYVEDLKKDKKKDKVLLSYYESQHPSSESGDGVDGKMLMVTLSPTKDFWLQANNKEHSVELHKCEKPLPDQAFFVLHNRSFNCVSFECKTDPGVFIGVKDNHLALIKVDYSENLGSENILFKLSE
# T7: human IL-1a (human, UniProt P01583 113-271)
# T7 construct: also called IL-1a (R&D Systems #200-LA)
# T7 sequence (looked up): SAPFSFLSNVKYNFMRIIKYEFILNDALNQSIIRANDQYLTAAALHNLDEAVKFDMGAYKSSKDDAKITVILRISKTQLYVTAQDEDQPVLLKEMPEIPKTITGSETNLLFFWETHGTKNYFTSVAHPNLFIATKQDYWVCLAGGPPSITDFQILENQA
# B1: 22A06-458 (antibody, human IgG1, kappa)
# heavy: QVQLVQSGAEVKKPGASVKVSCKASGYTFISYGMHWVRQAPGQGLEWMGEINPHGGSTSYAQKFKGRVTMTRDTSTSTVYMELSSLRSEDTAVYYCARPSAAYSHYLGIDLWGRGTLVTVSSASTKGPSVFPLAPSSKSTSGGTAALGCLVKDYFPEPVTVSWNSGALTSGVHTFPAVLQSSGLYSLSSVVTVPSSSLGTQTYICNVNHKPSNTKVDKKVEPKSCDKTHTCPPCPAPELLGGPSVFLFPPKPKDTLYITREPEVTCVVVDVSHEDPEVKFNWYVDGVEVHNAKTKPREEQYNSTYRVVSVLTVLHQDWLNGKEYKCKVSNKALPAPIEKTISKAKGQPREPQVYTLPPSRDELTKNQVSLTCLVKGFYPSDIAVEWESNGQPENNYKTTPPVLDSDGSFFLYSKLTVDKSRWQQGNVFSCSVMHEALHNHYTQKSLSLSPGK
# light: DIQMTQSPSSVSASVGDRVTITCRASQGISSWLAWYQQKPGKAPKLLIYAASRLQSGVPSRFSGSGSGTDFTLTISSLQPEDFATYYCQQANVFPLTFGGGTKVEIKRTVAAPSVFIFPPSDEQLKSGTASVVCLLNNFYPREAKVQWKVDNALQSGNSQESVTEQDSKDSTYSLSSTLTLSKADYEKHKVYACEVTHQGLSSPVTKSFNRGEC
# Legend:
# IL-33 95-270 = biological target: T1, IL-33 95-270; test: cell-based or functional assay
# IL-33 99-270 = biological target: T2, IL-33 99-270; test: cell-based or functional assay
# IL-33 109-270 = biological target: T3, IL-33 109-270; test: cell-based or functional assay
# spIL-33 = test: cell-based or functional assay
# [1] = biological target: T4, Mature IL-33 (IL-33 113-270); test: cell-based or functional assay
# human IL-33 [2] = biological target: T5, human IL-33; test: cell-based or functional assay
# human IL-33 [3] = biological target: T5, human IL-33; test: cell-based or functional assay
# human IL-33 [4] = biological target: T5, human IL-33; test: cell-based or functional assay
# human IL-33 [5] = biological target: T5, human IL-33; test: MSD-SET solution equilibrium titration, 25 C
# human IL-33 [6] = biological target: T5, human IL-33; test: MSD-SET solution equilibrium titration, 37 C
# cynomolgus IL-33 [7] = biological target: T6, cynomolgus IL-33; test: MSD-SET solution equilibrium titration, 37 C
# cynomolgus IL-33 [8] = biological target: T6, cynomolgus IL-33; test: MSD-SET solution equilibrium titration, 25 C, n = 3
# human IL-1a = biological target: T7, human IL-1a; test: BLI (Octet RED384), antibody on protein A sensors, single shot
# human IL-1b = biological target: T8, human IL-1b (human, UniProt P01584 117-269); test: as above
# T8 construct: also called IL-1b (R&D Systems #201-LB)
# [9] = biological target: T9, human complement component C1q (human, UniProt P02745 23-245; P02746 28-253; P02747 29-245); test: SPR (ProteOn XPR36), antibody immobilised by amine coupling, C1q as analyte, equilibrium fit, 25 C
# T9 construct: also called human recombinant soluble complement C1q; Sigma #C1740-5 mg
# T9 sequence (P02745 23-245 limits assumed, chain 1 of 3): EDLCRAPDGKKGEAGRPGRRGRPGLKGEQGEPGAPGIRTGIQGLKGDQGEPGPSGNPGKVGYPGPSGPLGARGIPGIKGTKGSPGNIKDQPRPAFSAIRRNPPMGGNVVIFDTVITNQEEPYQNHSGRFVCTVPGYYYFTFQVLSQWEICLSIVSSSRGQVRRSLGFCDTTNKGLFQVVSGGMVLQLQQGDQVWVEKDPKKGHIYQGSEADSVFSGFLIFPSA
# T9 sequence (P02746 28-253 limits assumed, chain 2 of 3): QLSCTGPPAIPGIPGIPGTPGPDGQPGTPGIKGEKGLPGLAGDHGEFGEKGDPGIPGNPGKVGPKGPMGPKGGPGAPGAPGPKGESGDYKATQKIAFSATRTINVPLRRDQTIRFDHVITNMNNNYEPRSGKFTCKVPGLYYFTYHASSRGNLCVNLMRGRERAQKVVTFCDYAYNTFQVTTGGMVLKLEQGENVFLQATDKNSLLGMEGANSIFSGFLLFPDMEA
# T9 sequence (P02747 29-245 limits assumed, chain 3 of 3): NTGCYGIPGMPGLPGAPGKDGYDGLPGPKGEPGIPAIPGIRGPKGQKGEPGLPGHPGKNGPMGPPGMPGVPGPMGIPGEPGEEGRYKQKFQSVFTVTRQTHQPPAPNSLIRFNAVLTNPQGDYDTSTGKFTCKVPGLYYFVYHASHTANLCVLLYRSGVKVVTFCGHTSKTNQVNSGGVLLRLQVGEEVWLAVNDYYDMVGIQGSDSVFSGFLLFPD
binder,measurement,setting,value
B1,"IC50, inhibition of 25 pM IL-33 isoform in HEK-Blue reporter assay",IL-33 95-270,162 pM
same,"IC50, inhibition of 25 pM IL-33 isoform in HEK-Blue reporter assay",IL-33 99-270,436 pM
same,"IC50, inhibition of 25 pM IL-33 isoform in HEK-Blue reporter assay",IL-33 109-270,254 pM
same,"IC50, inhibition of 25 pM IL-33 isoform in HEK-Blue reporter assay",spIL-33,90.3 pM
same,"IC50, inhibition of 25 pM IL-33 isoform in HEK-Blue reporter assay",[1],18.2 pM
same,"IC50, inhibition of IL-33 (15 pM) induced superoxide generation from eosinophils, pre-complexed, Mean",human IL-33 [2],19.6 pM
same,"IC50, inhibition of IL-33 (15 pM) induced superoxide generation from eosinophils, pre-complexed, N = 1",human IL-33 [2],21.9 pM
same,"IC50, inhibition of IL-33 (15 pM) induced superoxide generation from eosinophils, pre-complexed, N = 2",human IL-33 [2],23.5 pM
same,"IC50, inhibition of IL-33 (15 pM) induced superoxide generation from eosinophils, pre-complexed, N = 3",human IL-33 [2],16.5 pM
same,"IC50, inhibition of IL-33 (15 pM) induced superoxide generation from eosinophils, pre-complexed, N = 4",human IL-33 [2],25.6 pM
same,"IC50, inhibition of IL-33 (15 pM) induced superoxide generation from eosinophils, pre-complexed, N = 5",human IL-33 [2],14.8 pM
same,"IC50, inhibition of IL-33 (15 pM) induced superoxide generation from eosinophils, pre-complexed, N = 6",human IL-33 [2],10.5 pM
same,"IC50, inhibition of IL-33 (15 pM) induced superoxide generation from eosinophils, pre-complexed, N = 7",human IL-33 [2],24.8 pM
same,"pIC50, inhibition of IL-33 (15 pM) induced superoxide generation from eosinophils, pre-complexed, Mean",human IL-33 [2],10.7
same,"pIC50, inhibition of IL-33 (15 pM) induced superoxide generation from eosinophils, pre-complexed, N = 1",human IL-33 [2],10.7
same,"pIC50, inhibition of IL-33 (15 pM) induced superoxide generation from eosinophils, pre-complexed, N = 2",human IL-33 [2],10.6
same,"pIC50, inhibition of IL-33 (15 pM) induced superoxide generation from eosinophils, pre-complexed, N = 3",human IL-33 [2],10.8
same,"pIC50, inhibition of IL-33 (15 pM) induced superoxide generation from eosinophils, pre-complexed, N = 4",human IL-33 [2],10.6
same,"pIC50, inhibition of IL-33 (15 pM) induced superoxide generation from eosinophils, pre-complexed, N = 5",human IL-33 [2],10.8
same,"pIC50, inhibition of IL-33 (15 pM) induced superoxide generation from eosinophils, pre-complexed, N = 6",human IL-33 [2],11
same,"pIC50, inhibition of IL-33 (15 pM) induced superoxide generation from eosinophils, pre-complexed, N = 7",human IL-33 [2],10.6
same,"IC50, inhibition of IL-33 (500 pM) induced IL-6 secretion from HUVECs, pre-complexed, Mean",human IL-33 [3],217 pM
same,"IC50, inhibition of IL-33 (500 pM) induced IL-6 secretion from HUVECs, pre-complexed, P7",human IL-33 [3],214 pM
same,"IC50, inhibition of IL-33 (500 pM) induced IL-6 secretion from HUVECs, pre-complexed, P8",human IL-33 [3],204 pM
same,"IC50, inhibition of IL-33 (500 pM) induced IL-6 secretion from HUVECs, pre-complexed, P9",human IL-33 [3],234 pM
same,"IC50, inhibition of IL-33 (500 pM) induced IL-8 secretion from HUVECs, pre-complexed, Mean",human IL-33 [3],390 pM
same,"IC50, inhibition of IL-33 (500 pM) induced IL-8 secretion from HUVECs, pre-complexed, P7",human IL-33 [3],489 pM
same,"IC50, inhibition of IL-33 (500 pM) induced IL-8 secretion from HUVECs, pre-complexed, P8",human IL-33 [3],278 pM
same,"IC50, inhibition of IL-33 (500 pM) induced IL-8 secretion from HUVECs, pre-complexed, P9",human IL-33 [3],402 pM
same,"pIC50, inhibition of IL-33 (500 pM) induced IL-6 secretion from HUVECs, pre-complexed, Mean",human IL-33 [3],9.66
same,"pIC50, inhibition of IL-33 (500 pM) induced IL-6 secretion from HUVECs, pre-complexed, P7",human IL-33 [3],9.67
same,"pIC50, inhibition of IL-33 (500 pM) induced IL-6 secretion from HUVECs, pre-complexed, P8",human IL-33 [3],9.69
same,"pIC50, inhibition of IL-33 (500 pM) induced IL-6 secretion from HUVECs, pre-complexed, P9",human IL-33 [3],9.63
same,"pIC50, inhibition of IL-33 (500 pM) induced IL-8 secretion from HUVECs, pre-complexed, Mean",human IL-33 [3],9.42
same,"pIC50, inhibition of IL-33 (500 pM) induced IL-8 secretion from HUVECs, pre-complexed, P7",human IL-33 [3],9.31
same,"pIC50, inhibition of IL-33 (500 pM) induced IL-8 secretion from HUVECs, pre-complexed, P8",human IL-33 [3],9.56
same,"pIC50, inhibition of IL-33 (500 pM) induced IL-8 secretion from HUVECs, pre-complexed, P9",human IL-33 [3],9.4
same,"IC50, inhibition of 30 ng/mL IL-33 induced IFN-γ secretion from whole blood, non-pre-complexed, Mean",human IL-33 [4],1.57 nM
same,"IC50, inhibition of 30 ng/mL IL-33 induced IFN-γ secretion from whole blood, non-pre-complexed, donor #32871",human IL-33 [4],0.97 nM
same,"IC50, inhibition of 30 ng/mL IL-33 induced IFN-γ secretion from whole blood, non-pre-complexed, donor #90237",human IL-33 [4],2.6 nM
same,"IC50, inhibition of 30 ng/mL IL-33 induced IFN-γ secretion from whole blood, non-pre-complexed, donor #91680",human IL-33 [4],1.6 nM
same,"IC50, inhibition of 30 ng/mL IL-33 induced IFN-γ secretion from whole blood, non-pre-complexed, donor #91955",human IL-33 [4],0.48 nM
same,"IC50, inhibition of 30 ng/mL IL-33 induced IFN-γ secretion from whole blood, non-pre-complexed, donor #91986",human IL-33 [4],3.04 nM
same,"IC50, inhibition of 30 ng/mL IL-33 induced IFN-γ secretion from whole blood, non-pre-complexed, donor #92251",human IL-33 [4],0.74 nM
same,"pIC50, inhibition of 30 ng/mL IL-33 induced IFN-γ secretion from whole blood, non-pre-complexed, Mean",human IL-33 [4],8.89
same,"pIC50, inhibition of 30 ng/mL IL-33 induced IFN-γ secretion from whole blood, non-pre-complexed, donor #32871",human IL-33 [4],9.01
same,"pIC50, inhibition of 30 ng/mL IL-33 induced IFN-γ secretion from whole blood, non-pre-complexed, donor #90237",human IL-33 [4],8.58
same,"pIC50, inhibition of 30 ng/mL IL-33 induced IFN-γ secretion from whole blood, non-pre-complexed, donor #91680",human IL-33 [4],8.79
same,"pIC50, inhibition of 30 ng/mL IL-33 induced IFN-γ secretion from whole blood, non-pre-complexed, donor #91955",human IL-33 [4],9.31
same,"pIC50, inhibition of 30 ng/mL IL-33 induced IFN-γ secretion from whole blood, non-pre-complexed, donor #91986",human IL-33 [4],8.51
same,"pIC50, inhibition of 30 ng/mL IL-33 induced IFN-γ secretion from whole blood, non-pre-complexed, donor #92251",human IL-33 [4],9.13
same,Kd,human IL-33 [5],0.0033 nM
same,Kd,human IL-33 [6],0.0135 nM
same,Kd,cynomolgus IL-33 [7],0.0565 nM
same,Kd,cynomolgus IL-33 [8],0.0275 nM
same,binding result,human IL-1a,no binding (tested: 100 nM)
same,binding result,human IL-1b,no binding (tested: 100 nM)
same,Kd,[9],213 nM
